Results from publication PMC9022596, “Convergent Evolution of Antibiotic Tolerance in Patients with Persistent Methicillin-Resistant Staphylococcus aureus Bacteremia” (Infection and Immunity, 2022).

Experiments:
O=C(O)CC(=O)C(=O)O = test: purified protein; conditions: AcCoA fixed at 0.3 mM, 0.1 mM DTNB, 100 mM Tris-HCl pH 8.0, room temperature
[1] = tested on: CC(=O)SCCNC(=O)CCNC(=O)[C@H](O)C(C)(C)COP(=O)(O)OP(=O)(O)OC[C@H]1O[C@@H](n2cnc3c(N)ncnc32)[C@H](O)[C@@H]1OP(=O)(O)O; test: purified protein; conditions: OAA fixed at 0.5 mM, 0.1 mM DTNB, 100 mM Tris-HCl pH 8.0, room temperature

“S. aureus citrate synthase (CS, citZ) (Staphylococcus aureus subsp. aureus USA300)” was tested, and the Km (O=C(O)CC(=O)C(=O)O) was 0.03 (95% CI 0.02 to 0.04) mM, the kcat (O=C(O)CC(=O)C(=O)O) was 30 (95% CI 28 to 32) s-1 and the Km [1] was 0.29 (95% CI 0.25 to 0.32) mM. For the same substance, the kcat [1] was 41 (95% CI 39 to 43) s-1.
